WO2009150539A2 (dated 2009)
Changes are numbered by the printed parent chain. Several values for one entry are separate records, joined by “and”; a condition that tells them apart may be missing. Equal entries are not always repeated.

Tests used:
[1] = target: T1, AahII toxin of Androctonus australis hector (Androctonus australis hector, UniProt P01484 20-83); experiment: cell-based or functional assay
T1 sequence: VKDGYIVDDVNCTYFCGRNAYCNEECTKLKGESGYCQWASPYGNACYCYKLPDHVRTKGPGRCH

[2] = target: T1, AahII toxin of Androctonus australis …; experiment: SPR (BIAcore), AahII immobilised on CM5 chip, Nb in mobile phase
[3] = target: T1, AahII toxin of Androctonus australis …; experiment: phage ELISA on coated AahII, Nb displayed on phage

B1: NbAahII38 (VHH)
VHH: DVQLVESGGGLVQPGGSLRLSCAASGFTFSNYVMSWVRQAPGKGLEWVSGINHGGGIQDYADSVKGRFTISRDNAKNTLYLQLNSLKIEDTAMYYCVRASHYRDYGPTIYSWGQGTQVTVSS
notes: also called cluster H
B1 was tested. Which “Survivors/Injected mice; i.c.v.; AahII:Nb 1:2; 2 LD50/mouse; 24 ng Nb/mouse” value [1] did it give?
The value was 1 survivors of 4 mice.

What about the “Survivors/Injected mice; i.c.v.; AahII:Nb 1:2; 3 LD50/mouse; 36 ng Nb/mouse” value [1] of the same binder?
Its value is 0 survivors of 4 mice.

And the Kd [2]?
The Kd was 76 nM.

And the koff [2]?
Its koff is 0.000781 s⁻¹.

And the kon [2]?
The kon was 10200 M⁻¹ s⁻¹.

B2: NbAahII48 (VHH)
VHH: QVQLVESGGGSVQAGGSLRLSCAASGYTCTKFNMGWYRQAPGKEREFVATIRRDSTIYYADSVKGRFTISQDNAKNMVYLQMTSLKPEDSAMYYCSTRCVTSSVPYWGQGTQVTVSS
Does B2 bind [3]?
Result: binds

B3: NbAahII3 (VHH)
VHH: QVQLVESGGGSVQAGGSLRLACAASGVTLSDYCMGWFRQAPGKEREGVAAIKDRGSISYYADSVKGRFTISKDNAKNTMYLQMNRLNSEDTAMYYCAVTRNSCLGLAKFRPPSYNYWGQGTQVTVSS
notes: also called NbAahID; NbAahIB
Does B3 bind [3]?
Result: binds

B4: NbAahII45 (VHH)
VHH: QVQLQESGGGSVQAGGSLKLSCAASGYFYSSNYYMAWFRQAPGKEREGVAHINRSGRITLYADSVKGRFTMSRDNAKNTVYLQMNSLKPEDTAIYYCAAGVRTHMPPLASYGFDYWGQGTQVTVSS
Does B4 bind [3]?
Result: binds

B5: NbAahII16 (VHH)
VHH: HVQLVESGGGSVQAGGSLRLSCAASGYTFSNYRMGWFRRAPGKECELVSTILTDGSTNYADSVKGRFTISRDNAKNTVYLLMNNLKAEDTAVYYCAAGNSRKGYLRRCGGTDFGYWGQGTQVTVSS
notes: also called NbAahlllό
Does B5 bind [3]?
Result: binds

B6: NbAahII11 (VHH)
VHH: QVQLQESGGGSVQAGGSLRLSCAASGLTLNNYCIGWFRQAPGKEREGVAALKSGGSFTYYADSVKGRFTISRDNAKNTMYLQMSSLNSEDTAMYYCAVTRNSCLGLAKFRPSSYNYWGQGTQVTVSS
notes: also called NbAaWI 1 1; NbAahIIl l
Does B6 bind [3]?
Result: binds

B7: NbAahII32 (VHH)
VHH: B6 VHH
Does B7 bind [3]?
Result: binds

B8: NbAahII6 (VHH)
VHH: B6 VHH with L27A, I34L, L51F, R72K, S84N, N101H
notes: also called NbAahllό
Does B8 bind [3]?
Result: binds

B9: NbAahII10 (VHH)
VHH: QVQLVESGGGSVQAGGSLKLSCAASGYFYSSNYCLGWFRQAPGKEREGVAQINIAPGRIYYADSVKGRFTISRDNAKNTVYLQMDSLKPEDTAIYYCASTAGNMYYGLRGPADFDYWGQGTQVTVSS
notes: also called NbAahIIlO; NbAahII lO
Which results are given for B9?
NC = (LD50 with Nb - LD50 without Nb)/Nb; i.c.v.; AahII:Nb 1:4 [1]: 37000 LD50/mg and 555 LD50/nmol; Survivors/Injected mice; i.c.v.; AahII:Nb 1:4; 2 LD50/mouse; 48 ng Nb/mouse [1]: 4 survivors of 4 mice; Survivors/Injected mice; i.c.v.; AahII:Nb 1:4; 3 LD50/mouse; 72 ng Nb/mouse [1]: 4 survivors of 4 mice; neutralizing capacity, i.c.v., toxin/Nb ratio 1/4 [1]: ~37500 LD50/mg; Kd [2]: 0.49 nM; koff [2]: 0.000569 s⁻¹; kon [2]: 1.14e+06 M⁻¹ s⁻¹
